In the series the target is SP1 (endogenous, PIG1 nuclear extract) (UniProt P08047). Kind of series: EMSA, supershift. To be noted: 10 ug PIG1 nuclear extract, 300 fmol biotin probe, 1.5 ug poly(dI-dC), kit binding buffer (LightShift; composition, salt and pH not given), 15 ul, 20 min room ….
Sequence of SP1 (endogenous, PIG1 nuclear extract) (P08047 whole entry): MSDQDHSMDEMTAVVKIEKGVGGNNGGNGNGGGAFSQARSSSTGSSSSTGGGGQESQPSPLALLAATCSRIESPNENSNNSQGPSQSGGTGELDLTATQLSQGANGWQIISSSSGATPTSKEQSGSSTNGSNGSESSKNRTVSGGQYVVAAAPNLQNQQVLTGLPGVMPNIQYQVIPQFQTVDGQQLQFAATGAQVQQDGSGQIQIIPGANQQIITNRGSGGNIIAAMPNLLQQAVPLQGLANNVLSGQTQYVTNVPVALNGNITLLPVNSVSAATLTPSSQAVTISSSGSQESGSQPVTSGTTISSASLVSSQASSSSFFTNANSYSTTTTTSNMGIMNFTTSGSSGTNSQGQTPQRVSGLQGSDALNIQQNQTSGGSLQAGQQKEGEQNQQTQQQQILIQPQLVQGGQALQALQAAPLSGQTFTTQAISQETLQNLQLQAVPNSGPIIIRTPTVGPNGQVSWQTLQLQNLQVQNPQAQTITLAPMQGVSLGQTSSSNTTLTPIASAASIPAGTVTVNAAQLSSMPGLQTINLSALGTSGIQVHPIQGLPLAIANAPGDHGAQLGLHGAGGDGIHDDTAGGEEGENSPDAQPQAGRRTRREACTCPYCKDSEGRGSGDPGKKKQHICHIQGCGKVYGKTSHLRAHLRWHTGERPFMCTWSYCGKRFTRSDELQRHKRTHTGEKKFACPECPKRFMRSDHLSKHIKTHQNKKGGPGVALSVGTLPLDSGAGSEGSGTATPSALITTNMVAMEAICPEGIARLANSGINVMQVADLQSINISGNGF

“AAGATGGAATGGAATCCAGATGGGCGGGGG (double strand) [AHR promoter -129T probe]”: the binding signal (% of -129C band) is greater than 100.
The figure for “AAGACGGAATGGAATCCAGATGGGCGGGGG (double strand) [AHR promoter -129C probe]” is 100.

These data come from PMC4570213.
